In test [1] the target is tf2h1_human GTF2H1 (UniProt P32780).
The target in test [2] is cbp_human CREBBP (UniProt Q92793).
Sequence of cbp_human CREBBP (Q92793 whole entry, looked up): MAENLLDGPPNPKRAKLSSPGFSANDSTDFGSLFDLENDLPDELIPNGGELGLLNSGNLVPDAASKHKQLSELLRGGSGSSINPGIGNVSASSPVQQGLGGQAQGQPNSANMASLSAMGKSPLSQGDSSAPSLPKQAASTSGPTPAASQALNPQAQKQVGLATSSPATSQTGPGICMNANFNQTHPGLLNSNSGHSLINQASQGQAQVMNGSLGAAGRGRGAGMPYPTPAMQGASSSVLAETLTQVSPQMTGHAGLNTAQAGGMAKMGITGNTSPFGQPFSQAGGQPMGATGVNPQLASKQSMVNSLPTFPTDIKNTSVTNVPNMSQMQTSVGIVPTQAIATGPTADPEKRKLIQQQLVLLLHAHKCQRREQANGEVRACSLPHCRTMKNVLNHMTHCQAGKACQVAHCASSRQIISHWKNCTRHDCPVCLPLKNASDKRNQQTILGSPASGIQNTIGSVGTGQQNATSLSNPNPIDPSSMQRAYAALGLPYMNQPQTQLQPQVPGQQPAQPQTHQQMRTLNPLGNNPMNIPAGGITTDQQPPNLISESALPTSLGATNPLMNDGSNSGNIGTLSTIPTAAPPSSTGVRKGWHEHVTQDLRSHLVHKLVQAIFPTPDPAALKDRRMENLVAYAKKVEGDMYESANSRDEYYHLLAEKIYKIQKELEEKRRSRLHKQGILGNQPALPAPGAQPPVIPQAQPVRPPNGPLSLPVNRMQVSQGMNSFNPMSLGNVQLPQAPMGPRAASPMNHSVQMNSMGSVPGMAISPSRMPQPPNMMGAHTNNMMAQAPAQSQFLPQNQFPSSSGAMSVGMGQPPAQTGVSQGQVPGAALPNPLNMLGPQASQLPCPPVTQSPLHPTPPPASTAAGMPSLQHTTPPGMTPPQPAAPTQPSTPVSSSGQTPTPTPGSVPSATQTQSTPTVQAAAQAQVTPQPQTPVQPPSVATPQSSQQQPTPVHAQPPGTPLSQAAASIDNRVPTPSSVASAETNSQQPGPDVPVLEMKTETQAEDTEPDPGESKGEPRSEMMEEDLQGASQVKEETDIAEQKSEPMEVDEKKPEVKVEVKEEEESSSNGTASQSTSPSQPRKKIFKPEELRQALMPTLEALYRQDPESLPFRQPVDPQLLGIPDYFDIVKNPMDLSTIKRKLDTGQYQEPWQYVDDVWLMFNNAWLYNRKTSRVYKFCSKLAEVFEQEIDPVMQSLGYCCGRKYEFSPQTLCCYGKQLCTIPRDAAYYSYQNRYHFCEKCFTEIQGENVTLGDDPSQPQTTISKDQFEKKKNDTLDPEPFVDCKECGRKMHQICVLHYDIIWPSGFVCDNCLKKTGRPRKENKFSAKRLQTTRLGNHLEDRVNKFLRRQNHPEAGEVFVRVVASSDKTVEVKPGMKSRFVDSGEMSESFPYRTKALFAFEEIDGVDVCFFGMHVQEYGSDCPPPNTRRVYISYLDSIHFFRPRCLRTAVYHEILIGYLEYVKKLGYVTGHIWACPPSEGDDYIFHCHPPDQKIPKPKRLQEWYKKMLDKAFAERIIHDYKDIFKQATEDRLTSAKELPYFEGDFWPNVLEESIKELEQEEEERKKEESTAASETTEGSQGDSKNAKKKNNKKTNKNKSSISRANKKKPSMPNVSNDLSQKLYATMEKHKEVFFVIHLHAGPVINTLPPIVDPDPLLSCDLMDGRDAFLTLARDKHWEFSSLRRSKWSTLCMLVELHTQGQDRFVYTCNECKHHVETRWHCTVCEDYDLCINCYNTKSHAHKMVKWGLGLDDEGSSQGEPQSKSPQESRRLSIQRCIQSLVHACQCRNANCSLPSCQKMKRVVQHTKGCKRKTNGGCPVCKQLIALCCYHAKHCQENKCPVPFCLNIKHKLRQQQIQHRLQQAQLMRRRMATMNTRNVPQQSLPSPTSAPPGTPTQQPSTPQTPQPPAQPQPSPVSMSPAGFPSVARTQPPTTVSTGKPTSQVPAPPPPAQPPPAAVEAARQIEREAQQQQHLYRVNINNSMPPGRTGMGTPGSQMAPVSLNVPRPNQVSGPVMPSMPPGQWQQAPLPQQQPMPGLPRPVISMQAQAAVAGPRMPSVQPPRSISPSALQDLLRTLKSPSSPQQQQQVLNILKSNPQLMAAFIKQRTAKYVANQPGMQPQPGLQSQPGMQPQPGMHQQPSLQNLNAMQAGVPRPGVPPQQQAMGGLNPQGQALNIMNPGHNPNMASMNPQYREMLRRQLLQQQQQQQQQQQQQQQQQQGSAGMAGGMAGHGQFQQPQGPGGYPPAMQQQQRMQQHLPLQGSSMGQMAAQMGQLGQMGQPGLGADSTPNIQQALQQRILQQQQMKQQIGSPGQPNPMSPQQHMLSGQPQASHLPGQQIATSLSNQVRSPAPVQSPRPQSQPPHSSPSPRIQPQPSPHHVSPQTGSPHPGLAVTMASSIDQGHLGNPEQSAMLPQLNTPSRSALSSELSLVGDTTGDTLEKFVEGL

Sequence of Krueppel-like factor 1 (Homo sapiens), Q13351 W73P (Q13351 whole entry W73P): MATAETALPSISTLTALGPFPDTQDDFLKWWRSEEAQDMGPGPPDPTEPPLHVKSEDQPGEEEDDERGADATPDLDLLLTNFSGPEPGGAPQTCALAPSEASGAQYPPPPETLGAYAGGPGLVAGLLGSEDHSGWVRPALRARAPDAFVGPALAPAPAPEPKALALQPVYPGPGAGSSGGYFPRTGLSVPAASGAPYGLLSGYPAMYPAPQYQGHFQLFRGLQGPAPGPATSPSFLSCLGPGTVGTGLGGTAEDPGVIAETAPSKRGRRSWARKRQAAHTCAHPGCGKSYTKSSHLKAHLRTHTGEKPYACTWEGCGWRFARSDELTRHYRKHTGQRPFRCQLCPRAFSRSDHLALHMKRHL
Sequence of tf2h1_human GTF2H1 (P32780 whole entry): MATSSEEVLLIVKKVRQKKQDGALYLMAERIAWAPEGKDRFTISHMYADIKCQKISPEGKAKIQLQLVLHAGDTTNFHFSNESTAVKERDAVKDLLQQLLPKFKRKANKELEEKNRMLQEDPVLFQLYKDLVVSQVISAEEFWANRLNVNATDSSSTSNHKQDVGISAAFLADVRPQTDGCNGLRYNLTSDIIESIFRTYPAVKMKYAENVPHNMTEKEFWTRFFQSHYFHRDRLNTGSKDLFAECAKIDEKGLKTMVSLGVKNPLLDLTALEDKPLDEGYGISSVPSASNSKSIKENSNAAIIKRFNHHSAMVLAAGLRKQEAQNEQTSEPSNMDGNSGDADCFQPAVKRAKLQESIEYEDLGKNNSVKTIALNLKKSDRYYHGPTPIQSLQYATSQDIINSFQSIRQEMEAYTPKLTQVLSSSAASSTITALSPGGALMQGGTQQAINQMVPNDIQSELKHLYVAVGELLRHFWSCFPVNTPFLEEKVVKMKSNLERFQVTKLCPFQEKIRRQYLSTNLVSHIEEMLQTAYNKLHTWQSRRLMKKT

As to “Krueppel-like factor 1 (Homo sapiens), Q13351 W73P”, the “effect of a mutation on the interaction” value in test [1] and in test [2] was “disrupting interaction strength” each time.

These data come from IntAct's records for PubMed 21670263.
